Reference: patent US20260258124A1 (CIMEIO THERAPEUTICS, published 2026)
Changes are numbered by the printed parent chain.

B1: Nadelhorn (antibody, V domains shown)
VH: QVQLVQSGAEVKKPGASVKVSCKASGYTFTSYNMHWVRQAPGQGLEWMGVIYSGNGDTSYNQKFKGRVTMTTDTSTSTAYMELRSLTSDDTAVYYCARERDTRFGNWGQGTLVTVSA
VL: EIVLTQSPSSLSASVGDRVTITCRASESVDIYGYSFMHWYQQKPGKAPKLLIYLASNLESGVPSRFSGSGSGTDFTLTISSLQPEDFATYYCQQNNEDPYTFGQGTKLEIKR
notes: IgG; also called VH1/VL1.8
B2: Grand Combin (antibody, V domains shown)
VH: B1 VH
VL: B1 VL with Y34N, N95G
notes: IgG; also called VH1/VL1.9
B3: Aletschhorn (antibody, V domains shown)
VH: B1 VH
VL: B1 VL with Y34N, D98P
notes: IgG; also called VH1/VL1.14
B4: Finsteraarhor (antibody, V domains shown)
VH: B1 VH
VL: B1 VL with Y34N, N95R
notes: IgG; also called VH1/VL1.10; VH1/LC1.10
B5: Lagginhorn (antibody, V domains shown)
VH: B1 VH with N55S
VL: B1 VL with Y34E, D98E
notes: IgG; also called VH1.2/VL1.17
B6: Jungfrau (antibody, V domains shown)
VH: B1 VH with N55S
VL: EIVLTQSPSSLSASVGDRVTITCRASESVDIYGNSFMHWYQQKPGKAPKLLIYLASNLESGVPSRFSGSGSGTDFTLTISSLQPEDFATYYCQQNNEDPYTFGQGTKLEIK
notes: IgG; also called VH1.2/VL1
B7: Ludwigshöhe (antibody, V domains shown)
VH: B1 VH
VL: B1 VL with Y34E
notes: IgG; also called VH1/VL1.7
B8: Castor (antibody, V domains shown)
VH: B1 VH
VL: B1 VL with Y34N, N95E
notes: IgG; also called VH1/VL1.11
B9: Alphubel (antibody, V domains shown)
VH: B1 VH
VL: B1 VL with Y34N, N96K
notes: IgG; also called VH1/VL1.13
B10: Dirruhorn (antibody, V domains shown)
VH: B1 VH
VL: B1 VL with N96K, D98E
notes: IgG; also called VH1/VL1.18; VH1/VH1.18
B11: Dent Blanche (antibody, V domains shown)
VH: B1 VH
VL: B1 VL with Y34F
notes: IgG; also called VH1/VL1.6
B12: Breithorn (antibody, V domains shown)
VH: B1 VH
VL: B1 VL with Y34N, D98E
notes: IgG; also called VH1/VL1.15; VH1/LC1.15
B13: Dom (antibody, V domains shown)
VH: B1 VH with K12R, V20L, M70L, T72R, A79V, R84S, T87R, D89E
VL: B6 VL
notes: IgG; also called VH3/VL1; HC3 LC1
B14: HC5 LC2 (antibody, V domains shown)
VH: EVQLVQSGAEVKKPGESLKISCKGSGYTFTSYNMHWVRQMPGKGLEWMGVIYSGNADTSYNQKFKGQVTISADKSISTAYLQWSSLKASDTAMYYCARERDTRFGNWGQGTLVTVSA
VL: B6 VL with E1D, L4M, S10T, D74E, E85D
notes: IgG; also called VH5/VL2
B15: HC3 LC5 (antibody, V domains shown)
VH: B1 VH with K12R, V20L, M70L, T72R, A79V, R84S, T87R, D89E
VL: B6 VL with E1D, V3Q, L4M, S35A, N95A, D98E, Q104G
notes: IgG; also called VH3/VL5
B16: HC3 LC2 (antibody, V domains shown)
VH: B1 VH with K12R, V20L, M70L, T72R, A79V, R84S, T87R, D89E
VL: B6 VL with E1D, L4M, S10T, D74E, E85D
notes: IgG; also called VH3/VL2
B17: HC2 LC2 (antibody, V domains shown)
VH: B1 VH with Q6E, V20L, G44R, M70I, T72V, T74K, T76A, R84S, T87R, D89E
VL: B6 VL with E1D, L4M, S10T, D74E, E85D
notes: IgG; also called VH2/VL2
B18: HC3 LC3 (antibody, V domains shown)
VH: B1 VH with K12R, V20L, M70L, T72R, A79V, R84S, T87R, D89E
VL: DIVMTQSPSTLSASVGDRVTITCRASESVDIYGSSFMHWYQQKPGQPPKLLIYLASNLESGVPSRFSGSGSGTEFTLTISSLEADDVATYYCQQNNEDPYTFGGGTKLEIK
notes: IgG; also called VH3/VL3
B19: HC2 LC5 (antibody, V domains shown)
VH: B1 VH with Q6E, V20L, G44R, M70I, T72V, T74K, T76A, R84S, T87R, D89E
VL: B6 VL with E1D, V3Q, L4M, S35A, N95A, D98E, Q104G
notes: IgG; also called VH2/VL5
B20: HC2 LC3 (antibody, V domains shown)
VH: B1 VH with Q6E, V20L, G44R, M70I, T72V, T74K, T76A, R84S, T87R, D89E
VL: B18 VL
notes: IgG; also called VH2/VL3
B21: HC5 LC3 (antibody, V domains shown)
VH: B14 VH
VL: B18 VL
notes: IgG; also called VH5/VL3
B22: Signalkuppe (antibody, V domains shown)
VH: B1 VH
VL: B18 VL
notes: IgG; also called VH1/VL3; HC1 LC3
B23: HC1 LC5 (antibody, V domains shown)
VH: B1 VH
VL: B6 VL with E1D, V3Q, L4M, S35A, N95A, D98E, Q104G
notes: IgG; also called VH1/VL5
B24: HC5 LC5 (antibody, V domains shown)
VH: B14 VH
VL: B6 VL with E1D, V3Q, L4M, S35A, N95A, D98E, Q104G
notes: IgG; also called VH5/VL5
B25: Liskamm (antibody, V domains shown)
VH: B14 VH
VL: B6 VL
notes: IgG; also called VH5/VL1; HC5 LC1
B26: Zumstein (antibody, V domains shown)
VH: B1 VH
VL: B6 VL with E1D, L4M, S10T, D74E, E85D
notes: IgG; also called VH1/VL2; HC1 LC2
B27: HC2 LC1 (antibody, V domains shown)
VH: B1 VH with Q6E, V20L, G44R, M70I, T72V, T74K, T76A, R84S, T87R, D89E
VL: B6 VL
notes: IgG; also called VH2/VL1

The binders below were run against T1, human recombinant CD117 (c-Kit) from Sino Biological (Catalog No. 11996-H08H) (human, UniProt P10721 26-524) (assay: BLI Octet, set-up as in Example 2).
T1 construct: also called soluble antigen
Description: (§1) In the main experiment kinetic assays were performed by first capturing IgG using anti-human Fc biosensors. The mAb capture biosensors were then submerged in wells containing different concentrations of antigen (association stage) followed by a dissociation step in running buffer. To allow for double reference correction, IgG-captured sensors were dipped into wells containing only buffer and blank sensors were also dipped into wells containing the antigen. This referencing provided a means of compensating for both the natural dissociation of the capture IgG and non-specific binding of the antigen to the sensor surface. Steps were performed at 25° C. at a constant shaking of 1000 rpm. New sensors were used for each sample. Dissociation rate constants (Kd) were calculated using the ForteBio Data Analysis software. All consumables used were those recommended by ForteBio.
(§2) All samples were diluted in freshly prepared running buffer. Antibody variants were immobilized onto the surface of a series of biosensors using the capture methods described. Antigen was passed over the surface to generate a binding response. Binding data for the IgG:antigen interactions were collected at 25° C. on the biosensors. A dilution series of the antigen was used in the association step, in order to fit results globally and get the best values for ka, kd, and KD. The response data for the binding of antigen to the surface immobilized IgG were fitted to a 1:1 binding model. HC0 LC0 refers to murine SR-1.

T1 sequence (P10721 26-524 limits assumed): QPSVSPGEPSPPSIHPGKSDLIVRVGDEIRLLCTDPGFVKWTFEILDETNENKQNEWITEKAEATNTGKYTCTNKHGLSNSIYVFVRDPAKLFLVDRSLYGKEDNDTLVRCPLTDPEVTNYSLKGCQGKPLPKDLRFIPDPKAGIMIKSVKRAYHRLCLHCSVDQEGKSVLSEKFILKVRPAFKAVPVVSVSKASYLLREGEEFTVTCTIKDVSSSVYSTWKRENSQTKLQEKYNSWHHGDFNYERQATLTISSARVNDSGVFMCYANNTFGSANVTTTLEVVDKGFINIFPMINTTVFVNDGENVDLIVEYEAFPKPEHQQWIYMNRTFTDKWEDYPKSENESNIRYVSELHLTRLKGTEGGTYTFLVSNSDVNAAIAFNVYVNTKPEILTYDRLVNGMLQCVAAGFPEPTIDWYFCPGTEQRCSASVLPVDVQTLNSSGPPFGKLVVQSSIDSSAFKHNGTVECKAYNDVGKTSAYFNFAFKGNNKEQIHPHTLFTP

| Binder | Kd |
| --- | --- |
| B1 | 0.2 nM |
| B2 | 1.3 nM |
| B3 | 1.4 nM |
| B4 | 4 nM |
| B5 | 0.44 nM |
| B6 | 1.3 nM |
| B7 | 0.2 nM |
| B8 | 2.2 nM |
| B9 | 1.4 nM |
| B10 | 0.56 nM |
| B11 | 1.2 nM |
| B12 | 0.4 nM |

These binders were tested against T1, human recombinant CD117 (c-Kit) from … (assay: BLI Octet, IgG on anti-human Fc sensor, soluble CD117, 1:1 fit).
Description: IgG antibodies were immobilized on biosensors using suitable capture surfaces and binding of soluble antigen to immobilized antibodies was monitored by BLI (Octet). The resulting sensorgrams were analyzed using the supplied software (Fortebio). As antigen human recombinant CD117 (c-Kit) from Sino Biological was used (Catalog No. 11996-H08H, Lot #LC14SE0812). As a pre-experiment a series of experiments was performed to optimize assay parameters. The following parameters were selected:
as §1, §2

| Binder | Kd | koff | kon |
| --- | --- | --- | --- |
| B13 | 1.96 nM | 0.000971 s⁻¹ | 495000 M⁻¹ s⁻¹ |
| B14 | 3.61 nM | 0.0017 s⁻¹ | 472000 M⁻¹ s⁻¹ |
| B15 | 26.2 nM | 0.0187 s⁻¹ | 715000 M⁻¹ s⁻¹ |
| B16 | 3.09 nM | 0.00178 s⁻¹ | 577000 M⁻¹ s⁻¹ |
| B17 | 10.8 nM | 0.00483 s⁻¹ | 449000 M⁻¹ s⁻¹ |
| B18 | 3.28 nM | 0.00216 s⁻¹ | 658000 M⁻¹ s⁻¹ |
| B19 | 33.8 nM | 0.0214 s⁻¹ | 632000 M⁻¹ s⁻¹ |
| B20 | 8.03 nM | 0.00458 s⁻¹ | 571000 M⁻¹ s⁻¹ |
| B21 | 3.67 nM | 0.00216 s⁻¹ | 589000 M⁻¹ s⁻¹ |
| B22 | 1.09 nM | 0.000727 s⁻¹ | 670000 M⁻¹ s⁻¹ |
| B23 | 8.79 nM | 0.00552 s⁻¹ | 628000 M⁻¹ s⁻¹ |
| B24 | 29.4 nM | 0.0184 s⁻¹ | 626000 M⁻¹ s⁻¹ |
| B25 | 1.92 nM | 0.000961 s⁻¹ | 500000 M⁻¹ s⁻¹ |
| B26 | 1.16 nM | 0.000668 s⁻¹ | 576000 M⁻¹ s⁻¹ |
| B27 | 5.16 nM | 0.00206 s⁻¹ | 399000 M⁻¹ s⁻¹ |
